Measurements taken from publication PMC6363796, “Identification and characterization of a direct activator of a gene transfer agent”.

T1: GafA (Rhodobacter capsulatus, UniProt D5AUH1 1-382)
T1 sequence: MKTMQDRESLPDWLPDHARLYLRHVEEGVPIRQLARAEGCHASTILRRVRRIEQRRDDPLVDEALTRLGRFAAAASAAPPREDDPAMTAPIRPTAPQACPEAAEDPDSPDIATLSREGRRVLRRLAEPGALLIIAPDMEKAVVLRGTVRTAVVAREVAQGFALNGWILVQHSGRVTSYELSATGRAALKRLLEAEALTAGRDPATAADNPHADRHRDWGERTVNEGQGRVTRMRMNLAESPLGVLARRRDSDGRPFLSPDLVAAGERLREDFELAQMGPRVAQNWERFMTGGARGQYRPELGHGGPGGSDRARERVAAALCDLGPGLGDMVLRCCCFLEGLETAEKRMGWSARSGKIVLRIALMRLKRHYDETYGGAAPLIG

T2: CtrA (Rhodobacter capsulatus, UniProt D5ATW9 1-237)
T2 sequence: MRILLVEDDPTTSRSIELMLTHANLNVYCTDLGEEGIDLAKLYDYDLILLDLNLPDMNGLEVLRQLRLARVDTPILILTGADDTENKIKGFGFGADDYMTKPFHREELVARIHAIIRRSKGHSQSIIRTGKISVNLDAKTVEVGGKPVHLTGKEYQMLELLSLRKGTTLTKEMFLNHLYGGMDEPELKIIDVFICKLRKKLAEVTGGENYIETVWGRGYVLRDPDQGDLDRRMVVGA

T3: GtaR (Rhodobacter capsulatus, UniProt D5AM23 1-203)
T3 sequence: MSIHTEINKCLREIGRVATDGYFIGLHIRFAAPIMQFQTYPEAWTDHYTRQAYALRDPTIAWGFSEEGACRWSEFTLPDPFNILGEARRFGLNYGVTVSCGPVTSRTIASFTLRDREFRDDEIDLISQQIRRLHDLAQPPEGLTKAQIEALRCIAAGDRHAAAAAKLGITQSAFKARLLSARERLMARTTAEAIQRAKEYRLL

B1: pGTA3 (dsDNA)
DNA 1: GCGCCGCGGGTGACCGTGTGCGCTTTTTTCATTTCGCTCGTGCGGACAGG
DNA 2: CCTGTCCGCACGAGCGAAATGAAAAAAGCGCACACGGTCACCCGCGGCGC
B2: pGafA_50 (gafA promoter) (dsDNA)
DNA 1: TCGAGATCGCCCCATTTCTTAACCAAGGGGTAACCAAAGCAACCCACGGT
DNA 2: ACCGTGGGTTGCTTTGGTTACCCCTTGGTTAAGAAATGGGGCGATCTCGA
B3: pGTA5 (dsDNA)
DNA 1: GGCATGCTAGGAGAGGTGGGCAAGCGCCGCGGGTGACCGTGTGCGCTTTT
DNA 2: AAAAGCGCACACGGTCACCCGCGGCGCTTGCCCACCTCTCCTAGCATGCC
B4: pGTA1 (dsDNA)
DNA 1: TCCGGGGTTTTTTCTTTTCAGCGGGTGCAACCCTGAATATAGCACTTGAC
DNA 2: GTCAAGTGCTATATTCAGGGTTGCACCCGCTGAAAAGAAAAAACCCCGGA
B5: pGTA4 (dsDNA)
DNA 1: TTCATTTCGCTCGTGCGGACAGGCATGAGAGGCGGGTCACGCAAGACATG
DNA 2: CATGTCTTGCGTGACCCGCCTCTCATGCCTGTCCGCACGAGCGAAATGAA

Key:
GafA = target: T1, GafA; assay: EMSA; 2 uM GafA; 80 nM Cy5-dsDNA, 25 mM HEPES pH 8.0, 50 mM K-glutamate, 50 mM MgSO4, 1 mM DTT, 0.1 mM EDTA, 0.05% Triton X-100, 1 ug poly dI:dC, 4% glycerol, 30 C 15 min; GtaR: 10 mM HEPES pH 8, 40 mM NaCl, 37 C 30 min; PCR products: pGTA 2 ng/ul, unlabelled 100 ng; settings: protein: recombinant; tags: His6 (pCMF176) or His6-MBP (pCMF193); label: 5'-Cy5 (one strand); blunt
CtrA = target: T2, CtrA; assay: EMSA; 80 nM Cy5-dsDNA, 25 mM HEPES pH 8.0, 50 mM K-glutamate, 50 mM MgSO4, 1 mM DTT, 0.1 mM EDTA, 0.05% Triton X-100, 1 ug poly dI:dC, 4% glycerol, 30 C 15 min; GtaR: 10 mM HEPES pH 8, 40 mM NaCl, 37 C 30 min; PCR products: pGTA 2 ng/ul, unlabelled 100 ng; settings: protein: recombinant; tags: His6 (pEHisTEV, N-terminal); chain copies: 2; label: 5'-Cy5 (one strand); blunt
GtaR = target: T3, GtaR; assay: EMSA; binding detected at 375 nM protein or above; GtaR buffer; 80 nM Cy5-dsDNA, 25 mM HEPES pH 8.0, 50 mM K-glutamate, 50 mM MgSO4, 1 mM DTT, 0.1 mM EDTA, 0.05% Triton X-100, 1 ug poly dI:dC, 4% glycerol, 30 C 15 min; GtaR: 10 mM HEPES pH 8, 40 mM NaCl, 37 C 30 min; PCR products: pGTA 2 ng/ul, unlabelled 100 ng; settings: protein: recombinant; tags: His6 (pEHisTEV, N-terminal); chain copies: 2; label: 5'-Cy5 (one strand); blunt

| Binder | binding result (GafA) | Kd (CtrA) | binding result (GtaR) |
| --- | --- | --- | --- |
| B1 | no binding |  |  |
| B2 |  | 54.9 nM | binds |
| B3 | no binding |  |  |
| B4 | no binding |  |  |
| B5 | no binding |  |  |
